Biological target: T1, ULBP6 (NKG2D natural ligand) (Homo sapiens (Human), UniProt Q5VY80 26-218)
T1 sequence: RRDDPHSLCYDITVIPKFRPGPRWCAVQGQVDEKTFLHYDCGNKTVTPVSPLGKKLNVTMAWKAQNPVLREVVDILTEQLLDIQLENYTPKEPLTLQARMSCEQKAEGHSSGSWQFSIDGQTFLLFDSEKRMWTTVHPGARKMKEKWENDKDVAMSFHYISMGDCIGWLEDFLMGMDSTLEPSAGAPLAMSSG
Assay: SPR, injection over captured mouse Fc-human NKG2D, 25 C
Description: Briefly, mouse Fc-human NKG2D was captured using an anti-mouse Fc antibody immobilized on a CM5 chip at a density of approximately 100 RU. […] Biacore 8K evaluation software was used for all data analysis.

binding result: binds
B1: soluble mouse Fc-human NKG2D dimer (Fc fusion, UniProt P26718 73-216, looked up)
chain: IWSAVFLNSLFNQEVQIPLTESYCGPCPKNWICYKNNCYQFFDESKNWYESQASCMSQNASLLKVYSKEDQDLLKLVKSYHWMGLVHIPTNGSWQWEDGSILSPNLLTIIEMQKGDCALYASSFKGYIENCSTPNTYICMQRTV
notes: also called mFc-hNKG2D; fusion protein of human NKG2D and murine Fc; not shown: murine Fc

From patent publication US20250019444A1 (published 2025)
